This data set can be described thus: protein stability index of a GFP-peptide fusion (GPS, HEK-293T) (PSI 1-6); higher = more stable. As to conditions: c terminus: a fixed tail appended.

± gives the standard deviation.
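Further: 24-mer peptide tiles fused after GFP, lentivirally expressed, FACS-sorted into six equal bins by GFP/DsRed ratio, decoded by Illumina sequencing, PSI is the read-weighted mean bin number.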

In turn, RYSTNLSNHVDDFTTFRGTELSFL [EDNRA] showed a protein stability index (treatment: DMSO) of 2.58 ± 0.17 and a protein stability index (treatment: MLN4924 1 uM, 8 h) of 2.54 ± 0.21.
On to FSQSAGLIQHQRIHKGEKPYQCSQ [ZSCAN9], for which the protein stability index is 3.55 ± 0.071 (treatment: DMSO) and 3.68 ± 0.18 (treatment: MLN4924 1 uM, 8 h).
Turning to VIRGLNTIPLFVQLLYSPIENIQR [CTNNB1], the protein stability index runs as follows: (treatment: DMSO) 2.76 ± 0.3; (treatment: MLN4924 1 uM, 8 h) 2.68 ± 0.4.
For QPHHQPPNRAGAPGESLECPAELR [TRAF3IP2] the same measures were 5.42 ± 0.23 and 5.21 ± 0.23.
As for SLVLPWSFPLEWAPQNLTRWTFEK [TOR1AIP2], the protein stability index (treatment: DMSO) turned out to be 2.14 ± 0.44 and the protein stability index (treatment: MLN4924 1 uM, 8 h) was 2.29 ± 0.32.
For KQKVSRIERSSSFSSITDSTMSLN [DVL3] the same measures were 4.27 ± 0.049 and 4.43 ± 0.16.
The matching figures for PLTLQSQPKEPQLTCDSAQKCHSI [ZSCAN9]: 4.36 ± 0.29 and 4.39 ± 0.15.
The matching figures for DLSGLPLQSSKNSYSFQNPSSFDP [RNF180]: 3.75 ± 0.065 and 3.78 ± 0.074.
Take RPVSCSGRDALLDQIRQGIQLKSV [WASL]: the protein stability index by setting is: (treatment: DMSO) 5.08 ± 0.56; (treatment: MLN4924 1 uM, 8 h) 4.95 ± 0.21.
The matching figures for RGHMPEWYTKSFGHLCAAEVVKIR [DLC1]: 2.08 ± 0.23 and 2.42 ± 0.32.
For the sequence YKQLGSAGEGLPQVYYFGPCGKYN [CSNK1G1], the protein stability index is, setting by setting: (treatment: DMSO) 3.05 ± 0.65; (treatment: MLN4924 1 uM, 8 h) 2.16 ± 0.2.
The matching figures for YGFYDECLRKYGNANVWKYFTDLF [PPP2CA]: 2.5 ± 0.21 and 2.67 ± 0.38.
On to VKMLGSPVDSVLFYAITTLHNLLL [CTNNB1], for which the protein stability index amounted to 2.47 ± 0.59 (treatment: DMSO) and 2.48 ± 0.6 (treatment: MLN4924 1 uM, 8 h).
The matching figures for KILDELEKVLDQVETELQRRNEET [GDAP1]: 3.08 ± 0.1 and 3.53 ± 0.081.
The matching figures for GGNKKSDGVKESSESTNTTIEDED [CAMK2A]: 5.7 ± 0.087 and 5.53 ± 0.26.
Turning to NPIQKEEDEGVDLSEGSSNEDEDL [SPANXN3], the protein stability index worked out at 4.96 ± 0.43 (treatment: DMSO) and 4.95 ± 0.39 (treatment: MLN4924 1 uM, 8 h).
The matching figures for GFAMYYFTYDPWIGKLLYLEDFFV [SAT1]: 3.16 ± 0.17 and 3.03 ± 0.34.
The matching figures for KLALDMEISAYRKLLQGEEERLKL [LMNB1]: 3.24 ± 0.23 and 3.28 ± 0.36.
For LKERCAQDACQAQAREKELLELQS [CCDC89] the same measures were 4.1 ± 0.26 and 4 ± 0.51.
The sequence PLWQCYLGRFNDINVPIRLECVKF [PDS5B] had a protein stability index (treatment: DMSO) of 2.46 ± 0.54 and a protein stability index (treatment: MLN4924 1 uM, 8 h) of 2.35 ± 0.28.
The matching figures for TKGHPRAVSQPFRLSSSLQGSAVT [CDC14A]: 3.49 ± 0.41 and 3.54 ± 0.28.
For IELAPLSMPRINHGVLSAEGFLFV [GAN] the same measures were 3.34 ± 1.1 and 2.81 ± 0.61.
The matching figures for SWTGDGWEFKLSDPDEVARRWGKR [ETS1]: 3.73 ± 0.062 and 3.88 ± 0.25.
For MSYDEISQLRLVCKRMDLVCQRML [FBXO28], the protein stability index stood at 2.43 ± 0.34 (treatment: DMSO) and 2.25 ± 0.36 (treatment: MLN4924 1 uM, 8 h).
For RRLYHLEGFQRCDVARQLGKNNEF [PSD2] the same measures were 2.61 ± 0.43 and 2.8 ± 0.16.
The matching figures for SASEPQPASQAASSSSASADLLAG [SNAP91]: 5.51 ± 0.17 and 5.41 ± 0.19.
For HWNSTIKRKVDTGGFLSESKDCKP [MYBL2] the same measures were 3.93 ± 0.57 and 4.12 ± 0.32.
Turning to LKLMDRHKKDCAREKPFKCQECGK [ZNF75A], the protein stability index by setting is: (treatment: DMSO) 3.74 ± 0.37; (treatment: MLN4924 1 uM, 8 h) 3.95 ± 0.28.
Turning to NKKYYKKFSIPDLDRHQLPLDDAL [DPCD], the protein stability index came out at 3.46 ± 0.13 (treatment: DMSO) and 3.55 ± 0.26 (treatment: MLN4924 1 uM, 8 h).
The matching figures for ETRVWHRRDGKWQIVHFHRSGAPS [CAMK2A]: 2.95 ± 0.07 and 3.1 ± 0.25.
For NDTDFRVYLLGNPVVWWLNLLSIA [POMT2] the same measures were 2.89 ± 0.48 and 3.11 ± 0.47.
The matching figures for FWNQGLTWKVLFCSMSATFTLNFF [CLCN6]: 3.31 ± 0.5 and 3.17 ± 0.21.
Consider NYRIMSYFKEAELKDLLLQVGRGL [WEE1], for which the protein stability index stood at 2.46 ± 0.87 (treatment: DMSO) and 2.15 ± 0.4 (treatment: MLN4924 1 uM, 8 h).
For GFLLRYAVIKSNHSYCRMFLQRGA [ASB7], the protein stability index is, setting by setting: (treatment: DMSO) 2.6 ± 0.37; (treatment: MLN4924 1 uM, 8 h) 2.34 ± 0.38.
The matching figures for EVKTRHSEKSQREDEEEEEGENYQ [CHGB]: 5.64 ± 0.28 and 5.48 ± 0.31.
For VRSQYPNQPTRFGKLLLRLPSLRT [NR2F2] the same measures were 2.42 ± 0.16 and 2.49 ± 0.23.
The matching figures for RSSGLVQRRTEASRNAADKERAAG [GOLPH3]: 5.11 ± 0.3 and 5.14 ± 0.33.
For the sequence RKRTAHERAKELYSSGEFSSGRKW [INTS4], the protein stability index came out at 4.06 ± 0.32 (treatment: DMSO) and 4.08 ± 0.31 (treatment: MLN4924 1 uM, 8 h).
For MLDMKVNPIQGLASKWDYEKNEWK [COX4I1], the protein stability index by setting is: (treatment: DMSO) 3.75 ± 0.18; (treatment: MLN4924 1 uM, 8 h) 3.65 ± 0.21.
In the case of SFVLKNFPALLSTGEFLKLPFERL [KLHL13], the protein stability index is, setting by setting: (treatment: DMSO) 1.94 ± 0.42; (treatment: MLN4924 1 uM, 8 h) 2.07 ± 0.42.
The matching figures for CRYATQLQQIQGLIGGLEAQLSEL [KRT15]: 2.23 ± 0.066 and 2.33 ± 0.18.
For DSASPVEDTSNDESSILGTDIDLQ [M1AP] the same measures were 5.62 ± 0.2 and 5.62 ± 0.21.
The matching figures for QREGTGKTVSLQIFSVLNSDDAAA [SMOC2]: 3.38 ± 0.24 and 3.35 ± 0.4.
As for YKRQEESGAAASLNVDAAVQQWLQ [CHIT1], the protein stability index is 4.22 ± 0.086 (treatment: DMSO) and 4.1 ± 0.094 (treatment: MLN4924 1 uM, 8 h).
With NKLALQYGCKVADIKKVNNFIREQ [LYSMD4], the protein stability index reads like this: (treatment: DMSO) 2.25 ± 0.22; (treatment: MLN4924 1 uM, 8 h) 2.38 ± 0.42.
The matching figures for LKLQTKTIKVSYARPSSASIRDAN [ELAVL3]: 2.77 ± 0.37 and 2.91 ± 0.32.
The matching figures for DLTVGRAPTADDDDDDHDDHEDND [NOL4L]: 5.56 ± 0.18 and 5.5 ± 0.15.
The matching figures for HHPENGEEAVTVLEDLESELDDPG [ZNF24]: 5.49 ± 0.22 and 5.65 ± 0.16.
On to KLTREQEELEEALEVERQENEQRR [MNAT1], for which the protein stability index came out at 5.59 ± 0.18 (treatment: DMSO) and 5.45 ± 0.27 (treatment: MLN4924 1 uM, 8 h).
With QLMEKLREKQLSHSLRAVSTDPPH [BEX1], the protein stability index came out at 3.35 ± 0.37 (treatment: DMSO) and 3.27 ± 0.34 (treatment: MLN4924 1 uM, 8 h).

The record behind these values is the supplement of paper PMC10567573.
